Data: patent US20190389914A1 (University of California, published 2019)

Tests used:
[1] = molecular target: GAL4 activation domain fusion to HAB1^!-3 (pACT-HAB1^!-3; D204A in HAB1^!-2) (Arabidopsis thaliana (Mouse-ear cress)) (UniProt Q9CAJ0); assay: Y2H, mandipropamid (FIG. 5)
[2] = molecular target: GAL4 activation domain fusion to HAB1 (pACT-HAB1), wild type (Arabidopsis thaliana (Mouse-ear cress)) (UniProt Q9CAJ0); assay: Y2H, mandipropamid (FIG. 6)
[3] = molecular target: GAL4 activation domain fusion to HAB1^V393R (Arabidopsis thaliana (Mouse-ear cress)) (UniProt Q9CAJ0); assay: Y2H, ABA, beta-gal staining (FIG. 1)
[4] = molecular target: T1, GAL4 activation domain fusion to HAB1^V393R (Arabidopsis thaliana (Mouse-ear cress), UniProt Q9CAJ0 4-511); assay: Y2H, mandipropamid (FIG. 3)
T1 construct: Mutant of the pACT-HAB1 template, which lacks the three N-terminal amino acids of HAB1; Denoted HAB1^!
T1 sequence: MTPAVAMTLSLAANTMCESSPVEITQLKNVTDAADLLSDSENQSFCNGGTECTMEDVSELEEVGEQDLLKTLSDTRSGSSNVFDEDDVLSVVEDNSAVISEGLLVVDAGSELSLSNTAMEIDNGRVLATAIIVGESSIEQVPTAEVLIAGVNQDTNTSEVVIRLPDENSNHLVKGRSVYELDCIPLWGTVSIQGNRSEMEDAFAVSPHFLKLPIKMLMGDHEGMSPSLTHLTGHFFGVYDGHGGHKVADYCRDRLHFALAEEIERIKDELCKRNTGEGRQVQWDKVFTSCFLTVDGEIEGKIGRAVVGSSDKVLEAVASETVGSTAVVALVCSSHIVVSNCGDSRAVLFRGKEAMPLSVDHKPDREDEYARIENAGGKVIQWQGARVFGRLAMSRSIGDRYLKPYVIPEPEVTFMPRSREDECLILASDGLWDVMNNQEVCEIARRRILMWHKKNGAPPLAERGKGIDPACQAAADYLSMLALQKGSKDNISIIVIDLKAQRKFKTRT

[5] = molecular target: T2, GAL4 activation domain fusion to HAB1^!-2 (pACT-HAB1^!-2; HAB1^V393R/R505A) (Arabidopsis thaliana (Mouse-ear cress), UniProt Q9CAJ0 4-511); assay: Y2H, mandipropamid (FIG. 3)
T2 construct: R505A introduced into the pACT clone carrying V393R; the pACT-HAB1 template lacks the three N-terminal amino acids of HAB1; also called HAB^!-2
T2 sequence: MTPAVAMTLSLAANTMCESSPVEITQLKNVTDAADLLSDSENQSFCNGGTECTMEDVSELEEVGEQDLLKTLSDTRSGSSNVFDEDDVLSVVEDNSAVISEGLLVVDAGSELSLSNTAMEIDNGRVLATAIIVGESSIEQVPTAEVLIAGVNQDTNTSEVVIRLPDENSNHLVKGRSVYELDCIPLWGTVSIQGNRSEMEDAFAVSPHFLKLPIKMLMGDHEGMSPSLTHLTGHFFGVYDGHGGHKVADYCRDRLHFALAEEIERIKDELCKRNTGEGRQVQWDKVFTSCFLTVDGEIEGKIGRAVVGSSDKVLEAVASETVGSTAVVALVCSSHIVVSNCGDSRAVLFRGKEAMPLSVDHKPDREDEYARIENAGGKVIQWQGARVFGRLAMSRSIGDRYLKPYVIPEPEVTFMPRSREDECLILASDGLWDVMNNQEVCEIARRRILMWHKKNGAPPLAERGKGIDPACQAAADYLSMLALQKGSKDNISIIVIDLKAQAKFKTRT

[6] = molecular target: T3, 6x-His-PYR1 (recombinant wild type, E. coli) (Arabidopsis, UniProt O49686 1-191); assay: pull-down on His-tag resin, SDS-PAGE (FIG. 8)
T3 construct: Previously constructed (Park et al., 2009); also called 6×-His-PYR1; wild type PYR1; not shown: 6x-His tag
T3 sequence: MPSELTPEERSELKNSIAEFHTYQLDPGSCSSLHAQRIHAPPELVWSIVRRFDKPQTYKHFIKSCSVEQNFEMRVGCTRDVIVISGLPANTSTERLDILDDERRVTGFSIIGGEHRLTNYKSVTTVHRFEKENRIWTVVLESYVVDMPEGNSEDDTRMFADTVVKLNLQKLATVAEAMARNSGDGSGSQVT

In the case of “GAL4 DNA binding domain fusion to PYR1*^-MANDI (PYR1^Y58H;K59R;V81I;F108A;S122G;M158I;F159V;A160V;T162D) (from UniProt P04386 1-147) (receptor)”, the fold less sensitive to mandipropamid relative to HAB1^!-2 [1] is reported as 10 fold and the fold less sensitivity to mandipropamid than the orthogonal interaction [2] is reported as 10 fold.

“GAL4 DNA binding domain fusion to PYR1^T162D (from UniProt P04386 1-147) (receptor)” gave a fold less sensitive to ABA than wild type pBD-PYR1/pACT-HAB1 control cells [3] of 4 fold.

B1: GAL4 DNA binding domain fusion to PYR1^!-MANDI (PYR1^Y58H;K59R;V81I;F108A;S122G;F159L;T162D) (receptor, not shown: small tags and cut ends)
chain: MPSELTPEERSELKNSIAEFHTYQLDPGSCSSLHAQRIHAPPELVWSIVRRFDKPQTHRHFIKSCSVEQNFEMRVGCTRDIIVISGLPANTSTERLDILDDERRVTGASIIGGEHRLTNYKGVTTVHRFEKENRIWTVVLESYVVDMPEGNSEDDTRMLADDVVKLNLQKLATVAEAMARNSGDGSGSQVT
notes: Septuple mutant; also called pBD-PYR1^!-MANDI
B1 was tested, and the “fold less sensitive to mandipropamid than the PYR1^MANDI/HAB1 interaction” value [4] was about 100 fold and the “fold less sensitive to mandipropamid than the PYR1^MANDI/HAB1 interaction” value [5] was about 100 fold.

B2: GST-HAB1* (recombinant, E. coli) (enzyme)
chain: MTPAVAMTLSLAANTMCESSPVEITQLKNVTDAADLLSDSENQSFCNGGTECTMEDVSELEEVGEQDLLKTLSDTRSGSSNVFDEDDVLSVVEDNSAVISEGLLVVDAGSELSLSNTAMEIDNGRVLATAIIVGESSIEQVPTAEVLIAGVNQDTNTSEVVIRLPDENSNHLVKGRSVYELDCIPLWGTVSIQGNASEMEAAFAVSPHFLKLPIKMLMGDHEGMSPSLTHLTGHFFGVYDGHGGHKVADYCRDRLHFALAEEIERIKDELCKRNTGEGRQVQWDKVFTSCFLTVDGEIEGKIGRAVVGSSDKVLEAVADETVGSTAVVALVCSSHIVVSNCGDSRAVLFRGKEAMPLSVDHKPDREDEYARIENAGGKVIQWQGARVFGRLAMSRSIGDRYLKPYVIPEPEVTFMPRSREDECLILASDGLWDVMNNQEVCEIARRRILMWHKKNGAPPLAERGKGIDPACQAAADYLSMLALQKGSKDNISIIVIDLKAQAKFKTRT
notes: Cloned into pGEX-4T-1; not shown: glutathione S-transferase (GST) of pGEX-4T-1
B2: no binding [6].
